Publication PMC3335792

Target: E. coli β-clamp labeled with OregonGreen488 (E. coli β-clamp^OG) (E. coli), P0A988
Assay: other fluorescence titration; OregonGreen488-labeled β-clamp (50 or 100 nM in the methods, 90 nM in the legend) titrated with the partner protein; 20 mM Tris-Cl pH 7.5, 8 mM MgCl2, 1 mM DTT, 0.2 mM EDTA, 50 mM NaCl, 0.5 mM ATP, 22°C; emission at 510 nm; apparent Kd
Details: remark: other sources report otherwise

Sequence of E. coli β-clamp labeled with OregonGreen488 (E. coli β-clamp^OG) (E. coli), P0A988 (P0A988 whole entry): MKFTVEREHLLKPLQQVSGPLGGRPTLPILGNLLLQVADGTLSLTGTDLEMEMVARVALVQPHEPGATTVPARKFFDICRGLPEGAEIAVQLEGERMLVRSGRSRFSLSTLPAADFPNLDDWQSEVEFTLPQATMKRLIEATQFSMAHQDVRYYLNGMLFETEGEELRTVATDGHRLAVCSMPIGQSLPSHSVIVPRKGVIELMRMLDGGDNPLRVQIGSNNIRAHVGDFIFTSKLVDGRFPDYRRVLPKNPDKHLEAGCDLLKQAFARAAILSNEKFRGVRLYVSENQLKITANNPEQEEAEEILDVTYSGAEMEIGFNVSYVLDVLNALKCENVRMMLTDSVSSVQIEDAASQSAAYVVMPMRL

Kd: 42.5 nM
B1: E. coli NAD+-dependent DNA ligase (E. coli LigA), P15042 1-671 (enzyme)
chain: MESIEQQLTELRTTLRHHEYLYHVMDAPEIPDAEYDRLMRELRELETKHPELITPDSPTQRVGAAPLAAFSQIRHEVPMLSLDNVFDEESFLAFNKRVQDRLKNNEKVTWCCELKLDGLAVSILYENGVLVSAATRGDGTTGEDITSNVRTIRAIPLKLHGENIPARLEVRGEVFLPQAGFEKINEDARRTGGKVFANPRNAAAGSLRQLDPRITAKRPLTFFCYGVGVLEGGELPDTHLGRLLQFKKWGLPVSDRVTLCESAEEVLAFYHKVEEDRPTLGFDIDGVVIKVNSLAQQEQLGFVARAPRWAVAFKFPAQEQMTFVRDVEFQVGRTGAITPVARLEPVHVAGVLVSNATLHNADEIERLGLRIGDKVVIRRAGDVIPQVVNVVLSERPEDTREVVFPTHCPVCGSDVERVEGEAVARCTGGLICGAQRKESLKHFVSRRAMDVDGMGDKIIDQLVEKEYVHTPADLFKLTAGKLTGLERMGPKSAQNVVNALEKAKETTFARFLYALGIREVGEATAAGLAAYFGTLEALEAASIEELQKVPDVGIVVASHVHNFFAEESNRNVISELLAEGVHWPAPIVINAEEIDSPFAGKTVVLTGSLSQMSRDDAKARLVELGAKVAGSVSKKTDLVIAGEAAGSKLAKAQELGIEVIDEAEMLRLLGS
modifications: here or on the partner: OregonGreen488 label (residue not stated)
